# Assay results from article PMC7654431.
# B1: SAXS primer/template (dsDNA)
# DNA 1: TGGCAGGCAGGTGGTCTTGCCGGTC
# DNA 2: GATCCCTCGACCGGCAAGACCACCTGCCTGCCA
# modifications: 3'-terminal ddC on primer
# Target: T7 DNA polymerase gp5;thioredoxin (trx) (bacteriophage T7;Escherichia coli, UniProt P00581;P0AA25 1-704;2-109, |)
# Experiment: SEC-SAXS-MALS
# Sequence of T7 DNA polymerase gp5;thioredoxin (trx) (P00581 whole entry, chain 1 of 2): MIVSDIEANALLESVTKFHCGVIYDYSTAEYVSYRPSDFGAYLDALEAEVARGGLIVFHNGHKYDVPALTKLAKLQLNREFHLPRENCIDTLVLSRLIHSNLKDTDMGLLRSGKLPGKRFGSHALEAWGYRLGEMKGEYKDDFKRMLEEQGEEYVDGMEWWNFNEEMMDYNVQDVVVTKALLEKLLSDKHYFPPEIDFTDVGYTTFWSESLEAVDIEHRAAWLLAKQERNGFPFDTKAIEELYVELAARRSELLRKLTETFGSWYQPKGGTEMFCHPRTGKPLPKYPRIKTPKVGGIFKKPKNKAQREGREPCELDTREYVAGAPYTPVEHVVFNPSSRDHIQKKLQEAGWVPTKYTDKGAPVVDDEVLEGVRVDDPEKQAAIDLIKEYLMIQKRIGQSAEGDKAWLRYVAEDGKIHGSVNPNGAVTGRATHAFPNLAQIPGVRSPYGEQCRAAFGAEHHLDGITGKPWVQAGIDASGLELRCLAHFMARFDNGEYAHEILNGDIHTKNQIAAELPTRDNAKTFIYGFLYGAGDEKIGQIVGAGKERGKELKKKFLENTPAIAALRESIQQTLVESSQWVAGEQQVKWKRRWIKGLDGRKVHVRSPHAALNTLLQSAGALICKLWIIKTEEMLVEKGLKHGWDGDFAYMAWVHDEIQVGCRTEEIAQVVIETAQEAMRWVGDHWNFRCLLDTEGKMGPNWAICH
# Sequence of T7 DNA polymerase gp5;thioredoxin (trx) (P0AA25 2-109, chain 2 of 2): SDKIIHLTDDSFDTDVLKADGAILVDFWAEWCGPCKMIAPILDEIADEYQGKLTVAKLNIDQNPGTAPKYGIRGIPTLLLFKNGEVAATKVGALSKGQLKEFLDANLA
binder,measurement,value
B1,binding result,binds
